Measured values from PMC12343972 (Nature Communications, 2025).
Positions count from the first letter of the chain named.

What was measured:
Rad50-R1201A = molecular target: T1, Rad50-R1201A (Saccharomyces cerevisiae, UniProt P12753 1-1312, R1201A); experiment: EMSA
T1 sequence: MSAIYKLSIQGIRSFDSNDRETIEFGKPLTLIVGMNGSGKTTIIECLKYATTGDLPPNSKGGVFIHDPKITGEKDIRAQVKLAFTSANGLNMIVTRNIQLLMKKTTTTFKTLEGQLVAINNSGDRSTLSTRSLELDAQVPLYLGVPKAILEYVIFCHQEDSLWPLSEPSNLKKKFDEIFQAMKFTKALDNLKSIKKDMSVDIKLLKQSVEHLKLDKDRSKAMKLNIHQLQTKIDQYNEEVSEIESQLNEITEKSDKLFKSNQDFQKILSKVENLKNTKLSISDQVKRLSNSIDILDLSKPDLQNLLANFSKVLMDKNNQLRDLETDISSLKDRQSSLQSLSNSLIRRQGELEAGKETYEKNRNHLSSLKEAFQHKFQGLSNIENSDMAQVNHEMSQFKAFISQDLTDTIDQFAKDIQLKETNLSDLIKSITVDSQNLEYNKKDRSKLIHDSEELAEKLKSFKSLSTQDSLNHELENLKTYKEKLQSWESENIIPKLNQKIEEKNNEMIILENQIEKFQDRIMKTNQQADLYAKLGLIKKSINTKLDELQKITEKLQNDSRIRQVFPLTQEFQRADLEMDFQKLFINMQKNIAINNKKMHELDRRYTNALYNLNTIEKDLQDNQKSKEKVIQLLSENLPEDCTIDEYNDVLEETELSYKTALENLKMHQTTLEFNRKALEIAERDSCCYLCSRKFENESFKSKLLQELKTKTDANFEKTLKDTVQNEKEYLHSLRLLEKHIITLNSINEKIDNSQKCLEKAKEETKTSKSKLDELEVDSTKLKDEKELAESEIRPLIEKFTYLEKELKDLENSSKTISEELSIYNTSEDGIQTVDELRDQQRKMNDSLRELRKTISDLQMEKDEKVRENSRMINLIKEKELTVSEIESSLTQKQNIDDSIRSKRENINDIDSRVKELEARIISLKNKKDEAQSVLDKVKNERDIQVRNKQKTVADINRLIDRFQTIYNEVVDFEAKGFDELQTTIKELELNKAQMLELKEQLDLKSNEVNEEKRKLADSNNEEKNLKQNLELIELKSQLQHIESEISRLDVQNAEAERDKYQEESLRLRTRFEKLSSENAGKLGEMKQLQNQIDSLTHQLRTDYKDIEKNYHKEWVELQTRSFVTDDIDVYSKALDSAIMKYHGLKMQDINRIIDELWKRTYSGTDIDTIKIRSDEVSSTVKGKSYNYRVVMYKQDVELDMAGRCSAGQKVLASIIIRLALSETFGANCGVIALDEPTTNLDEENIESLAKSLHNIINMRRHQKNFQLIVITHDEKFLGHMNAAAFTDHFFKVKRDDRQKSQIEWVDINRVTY

Rad50-R131A = molecular target: T2, Rad50-R131A (Saccharomyces cerevisiae, UniProt P12753 1-1312, R131A); experiment: EMSA
T2 sequence: T1 sequence with R131A, A1201R

B1: 83-mer dsDNA (EMSA) (dsDNA)
DNA 1: TTGATAAGAGGTCATTTTTGCGGATGGCTTAGAGCTTAATTGCTGAATCTGGTGCTGTAGCTCAACATGTTTTAAATATGCAA
DNA 2: TTGCATATTTAAAACATGTTGAGCTACAGCACCAGATTCAGCAATTAAGCTCTAAGCCATCCGCAAAAATGACCTCTTATCAA
binding result (Rad50-R1201A): binds | binding result (Rad50-R131A): binds
